Results from paper PMC9568494, “A portable electrochemiluminescence aptasensor for β-lactoglobulin detection”.

Biological target: T1, beta-lactoglobulin (β-LG) (Bos taurus (cow)?, UniProt P02754 17-178)
T1 sequence: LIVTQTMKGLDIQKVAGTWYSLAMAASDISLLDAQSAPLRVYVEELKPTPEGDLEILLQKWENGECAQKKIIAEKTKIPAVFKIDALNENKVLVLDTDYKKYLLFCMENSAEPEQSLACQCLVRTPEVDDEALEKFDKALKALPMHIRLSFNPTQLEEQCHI
Assay: electrochemical (chronoamperometric) titration on gold screen-printed electrode, immobilized β-LG, streptavidin-HRP/TMB; 2 mM MgCl2 in BS-LG selection buffer; aptamer 40-100 nM; Kd read as inflection point; Kd assay: BS-LG, 50 mM Tris pH 7.4, 150 mM NaCl, 2 mM MgCl2 (wash and HRP step; aptamer diluent not stated), 30 min incubation, temperature not stated
Details: protein: commercial; chain copies: 2; label: 5'-biotin

B1: BLG14 aptamer (ssDNA)
DNA: GACGATCGGACCGCAGTACCCACCCACCAGCCCCAACATCATGCCCATCCGTGTGTG
B1 gave a Kd of 56 nM.
